From PMC6082870

B1: lysyl hydroxylase 3 (LH3/PLOD3): T672N (protein)
parent chain: MTSSGPGPRFLLLLPLLLPPAASASDRPRGRDPVNPEKLLVITVATAETEGYLRFLRSAEFFNYTVRTLGLGEEWRGGDVARTVGGGQKVRWLKKEMEKYADREDMIIMFVDSYDVILAGSPTELLKKFVQSGSRLLFSAESFCWPEWGLAEQYPEVGTGKRFLNSGGFIGFATTIHQIVRQWKYKDDDDDQLFYTRLYLDPGLREKLSLNLDHKSRIFQNLNGALDEVVLKFDRNRVRIRNVAYDTLPIVVHGNGPTKLQLNYLGNYVPNGWTPEGGCGFCNQDRRTLPGGQPPPRVFLAVFVEQPTPFLPRFLQRLLLLDYPPDRVTLFLHNNEVFHEPHIADSWPQLQDHFSAVKLVGPEEALSPGEARDMAMDLCRQDPECEFYFSLDADAVLTNLQTLRILIEENRKVIAPMLSRHGKLWSNFWGALSPDEYYARSEDYVELVQRKRVGVWNVPYISQAYVIRGDTLRMELPQRDVFSGSDTDPDMAFCKSFRDKGIFLHLSNQHEFGRLLATSRYDTEHLHPDLWQIFDNPVDWKEQYIHENYSRALEGEGIVEQPCPDVYWFPLLSEQMCDELVAEMEHYGQWSGGRHEDSRLAGGYENVPTVDIHMKQVGYEDQWLQLLRTYVGPMTESLFPGYHTKARAVMNFVVRYRPDEQPSLRPHHDSSTFTLNVALNHKGLDYEGGGCRFLRYDCVISSPRKGWALLHPGRLTHYHEGLPTTWGTRYIMVSFVDP
B2: lysyl hydroxylase 3 (LH3/PLOD3): R714N (protein)
parent chain: MTSSGPGPRFLLLLPLLLPPAASASDRPRGRDPVNPEKLLVITVATAETEGYLRFLRSAEFFNYTVRTLGLGEEWRGGDVARTVGGGQKVRWLKKEMEKYADREDMIIMFVDSYDVILAGSPTELLKKFVQSGSRLLFSAESFCWPEWGLAEQYPEVGTGKRFLNSGGFIGFATTIHQIVRQWKYKDDDDDQLFYTRLYLDPGLREKLSLNLDHKSRIFQNLNGALDEVVLKFDRNRVRIRNVAYDTLPIVVHGNGPTKLQLNYLGNYVPNGWTPEGGCGFCNQDRRTLPGGQPPPRVFLAVFVEQPTPFLPRFLQRLLLLDYPPDRVTLFLHNNEVFHEPHIADSWPQLQDHFSAVKLVGPEEALSPGEARDMAMDLCRQDPECEFYFSLDADAVLTNLQTLRILIEENRKVIAPMLSRHGKLWSNFWGALSPDEYYARSEDYVELVQRKRVGVWNVPYISQAYVIRGDTLRMELPQRDVFSGSDTDPDMAFCKSFRDKGIFLHLSNQHEFGRLLATSRYDTEHLHPDLWQIFDNPVDWKEQYIHENYSRALEGEGIVEQPCPDVYWFPLLSEQMCDELVAEMEHYGQWSGGRHEDSRLAGGYENVPTVDIHMKQVGYEDQWLQLLRTYVGPMTESLFPGYHTKARAVMNFVVRYRPDEQPSLRPHHDSSTFTLNVALNHKGLDYEGGGCRFLRYDCVISSPRKGWALLHPGRLTHYHEGLPTTWGTRYIMVSFVDP
B3: lysyl hydroxylase 3 (LH3/PLOD3): W148N-L150T (protein)
parent chain: MTSSGPGPRFLLLLPLLLPPAASASDRPRGRDPVNPEKLLVITVATAETEGYLRFLRSAEFFNYTVRTLGLGEEWRGGDVARTVGGGQKVRWLKKEMEKYADREDMIIMFVDSYDVILAGSPTELLKKFVQSGSRLLFSAESFCWPEWGLAEQYPEVGTGKRFLNSGGFIGFATTIHQIVRQWKYKDDDDDQLFYTRLYLDPGLREKLSLNLDHKSRIFQNLNGALDEVVLKFDRNRVRIRNVAYDTLPIVVHGNGPTKLQLNYLGNYVPNGWTPEGGCGFCNQDRRTLPGGQPPPRVFLAVFVEQPTPFLPRFLQRLLLLDYPPDRVTLFLHNNEVFHEPHIADSWPQLQDHFSAVKLVGPEEALSPGEARDMAMDLCRQDPECEFYFSLDADAVLTNLQTLRILIEENRKVIAPMLSRHGKLWSNFWGALSPDEYYARSEDYVELVQRKRVGVWNVPYISQAYVIRGDTLRMELPQRDVFSGSDTDPDMAFCKSFRDKGIFLHLSNQHEFGRLLATSRYDTEHLHPDLWQIFDNPVDWKEQYIHENYSRALEGEGIVEQPCPDVYWFPLLSEQMCDELVAEMEHYGQWSGGRHEDSRLAGGYENVPTVDIHMKQVGYEDQWLQLLRTYVGPMTESLFPGYHTKARAVMNFVVRYRPDEQPSLRPHHDSSTFTLNVALNHKGLDYEGGGCRFLRYDCVISSPRKGWALLHPGRLTHYHEGLPTTWGTRYIMVSFVDP

Columns and labels:
[1] = analytical size exclusion chromatography; details: glycan gained; control: wild type
[2] = lysyl hydroxylase activity, Succinate-Glo luminescence; details: glycan gained; control: wild type

| Protein | oligomerisation [1] | enzymatic_activity [2] |
| --- | --- | --- |
| B1 | decreases | – |
| B2 | decreases | – |
| B3 | no change | no change |
